In the experiment the target is T1, Recombinant human his-tagged CD38 protein (human, UniProt P28907 43-300).
T1 construct: not shown: his tag
Description: SPR (Biacore T200, 25 C), antibody captured on anti-human Fc CM5 chip, his-tagged human CD38 as analyte, steady state affinity model. As for the experimental part:
Binding kinetics of parent antibody CD38 A2 and variant antibody CD38 A2 SV was measured using surface plasmon resonance (SPR). Kinetic interaction between the parent or variant antibody and a his-tagged CD38 protein were measured at 25° C. using Biacore T200 surface plasmon resonance (GE Healthcare). Anti-human fragment crystallizable region (Fc region) antibody was immobilized on a CM5 sensor chip to approximately 8000 resonance units (RU) using standard N hydroxysuccinimide/N Ethyl-N′-(3-dimethylaminopropyl) carbodiimide hydrochloride (NHS/EDC) coupling methodology. The CD38 A2 parent antibody or CD38 A2 SV variant antibody (2 μg/mL) was captured for 60 seconds at a flow rate of 10 μL/minute. Recombinant human his-tagged CD38 protein was serially diluted in a running buffer of 0.01 M HEPES pH 7.4, 0.15 M NaCl, 3 mM EDTA, 0.05% v/v Surfactant P20 (HBS EP+). All measurements were conducted in HBS-EP+buffer with a flow rate of 30 μL/minute. Steady state affinity model was used to get affinity. The sensorgrams of the CD38 A2 parent antibody and CD38 A2 SV variant antibody are shown in FIGS. 3A and B, respectively, and their corresponding binding kinetics are listed in Table 3 below.
(In general: Surface plasmon resonance follows binding to a sensor surface in real time, without labels.)

B1: variant antibody CD38 A2 SV (antibody, V domains shown)
VH: QVQLVESGGGLVKPGGSLRLSCAASGFTFSDDYMSWIRQAPGKGLEWVASVSNGRPTTYYADSVRGRFTISRDNAKNSLYLQMNSLRAEDTAVYYCAREDWGGEFTDWGRGTLVTVSS
VL: QSVLTQPPSASGTSGQRVTISCSGSSSNIGINFVYWYQHLPGTAPKLLIYKNNQRPSGVPDRFSGSKSGNSASLAISGLRSEDEADYYCAAWDDSLSGYVFGSGTKVTVL
notes: also called CD38-A2 SV mutant; CD38 A2 SV variant antibody
Turning to B1, the Kd (in general, a measure of binding affinity in units of concentration) is 15.6 nM.

The values above are taken from patent US20210130484A1 (SORRENTO THERAPEUTICS, published 2021).
